Data on four molecules can be found in patent publication US20200317817A1 (XOMA US, published 2020).

A word on the EC50: it is the concentration needed to bring the measured effect to its halfway point. What is called Kd is the free concentration of one partner at which half of the binding sites on the other are occupied at equilibrium, for simple one-to-one binding. A word on the koff: it is the rate constant with which the complex falls apart. As a reminder, the kon is the rate constant with which the complex forms.

In assay [1] the target is T1, human PTH1R overexpressed on CHO cells (human, UniProt Q03431 27-593).
T1 construct: whole, on cells; also called CHO human PTH1R; CHO Human PTHR
T1 sequence (looked up): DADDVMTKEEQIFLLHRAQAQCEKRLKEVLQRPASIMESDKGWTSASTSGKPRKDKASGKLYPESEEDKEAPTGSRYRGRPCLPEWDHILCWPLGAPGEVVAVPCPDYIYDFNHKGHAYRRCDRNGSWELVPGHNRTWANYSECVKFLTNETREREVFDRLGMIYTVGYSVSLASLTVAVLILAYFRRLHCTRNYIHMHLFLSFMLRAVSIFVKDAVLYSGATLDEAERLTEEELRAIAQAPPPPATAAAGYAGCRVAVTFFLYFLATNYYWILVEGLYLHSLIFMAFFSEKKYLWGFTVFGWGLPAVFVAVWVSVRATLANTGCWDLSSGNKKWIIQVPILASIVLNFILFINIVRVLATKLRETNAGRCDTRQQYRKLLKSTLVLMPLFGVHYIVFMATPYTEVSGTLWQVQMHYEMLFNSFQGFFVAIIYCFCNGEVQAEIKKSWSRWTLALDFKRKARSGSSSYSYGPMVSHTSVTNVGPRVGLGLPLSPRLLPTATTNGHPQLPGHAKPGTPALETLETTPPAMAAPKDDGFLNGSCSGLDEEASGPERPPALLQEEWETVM
The assay is described as follows: flow cytometry on CHO cells, antibody alone. Here is the method: (§1) To characterize antibody binding to PTH1R, cells were labeled with either CellTrace™ CFSE or CellTrace™ Violet. Unlabeled CHOK1 parent, CHO human PTH1R labeled with CellTrace™CFSE, and CHO mouse PTH1R labeled with CellTrace™Violet were pooled together and stained with increasing concentrations of antibody. Antibodies were incubated for 24 hr at 4° C. followed by two washes with FACS Buffer (0.5% BSA, 0.1% NaN3 in DPBS). Cells were then incubated with Allophycocyanin (APC) AffiniPure F(ab′)₂ Fragment Goat Anti-Human IgG (H+L) (Jackson ImmunoResearch, West Grove, Pa.) for 20 minutes at 4° C. Followed by two washes, cells were resuspended in FACS Buffer. Samples were acquired using BD Cytometer (BD Biosciences, San Jose, Calif.) and data were analyzed using FlowJo (FlowJo, LLC, Ashland, Oreg.) and Prism (GraphPad Software, La Jolla, Calif.).
Background: A flow cytometer gives signals particle by particle.

Assay [2] concerns the target T2, mouse PTH1R overexpressed on CHO cells (mouse, UniProt P41593 27-591).
T2 construct: whole, on cells; also called CHO mouse PTH1R; CHO Mouse PTHR
T2 sequence (looked up): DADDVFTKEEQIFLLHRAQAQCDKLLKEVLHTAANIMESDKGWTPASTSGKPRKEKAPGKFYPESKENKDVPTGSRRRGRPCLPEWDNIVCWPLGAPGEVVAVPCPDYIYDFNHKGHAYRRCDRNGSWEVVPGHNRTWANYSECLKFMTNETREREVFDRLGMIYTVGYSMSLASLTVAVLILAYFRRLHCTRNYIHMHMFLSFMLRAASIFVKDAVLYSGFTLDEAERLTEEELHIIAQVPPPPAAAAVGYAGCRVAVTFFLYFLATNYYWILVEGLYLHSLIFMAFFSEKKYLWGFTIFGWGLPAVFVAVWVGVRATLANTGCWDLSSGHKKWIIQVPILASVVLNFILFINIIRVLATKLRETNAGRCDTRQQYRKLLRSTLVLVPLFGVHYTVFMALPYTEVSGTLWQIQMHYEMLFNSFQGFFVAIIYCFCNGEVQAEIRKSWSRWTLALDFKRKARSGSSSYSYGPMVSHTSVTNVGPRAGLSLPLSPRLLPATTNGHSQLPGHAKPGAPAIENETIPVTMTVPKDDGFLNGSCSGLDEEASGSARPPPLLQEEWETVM
The assay is described as follows: flow cytometry on CHO cells, antibody alone. Here is the method: as §1

Assay [3] addresses T3, recombinant N-terminal extracellular domain of the human PTH1R receptor (human, UniProt Q03431 27-188, limits assumed).
T3 construct: domain: N-terminal extracellular domain; Bought reagent; also called N-ECD PTH1R; PTH1R N-terminal ECD
T3 sequence (looked up): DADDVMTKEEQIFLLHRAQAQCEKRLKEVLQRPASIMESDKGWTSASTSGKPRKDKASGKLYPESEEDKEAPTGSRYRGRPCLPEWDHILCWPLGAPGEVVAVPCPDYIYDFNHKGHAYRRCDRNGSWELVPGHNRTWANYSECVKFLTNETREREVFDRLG
Briefly: SPR, IgG captured, ECD injected. The essentials:
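Antibodies (0.5 μg/mL) captured on anti-human IgG-Fc chip to 100–200 RU in HBS-EP+ with 2.5 mg/mL BSA; receptor ECD injected at 30 μL/minute for 240 s, 360 s dissociation, 3M MgCl regeneration. Double-referenced data fit globally for ka and kd; KD=kd/kₐ.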

Assay [4] has as its target T4, human PTH1R on Saos-2 cells (endogenous) (human, UniProt Q03431 27-593).
T4 sequence (looked up): T1 sequence (looked up)
The assay is described as follows: cell-based or functional assay.

B1: XPA.85.341 (antibody, V domains shown)
VH: EVQLVETGGGVVRPGGSLRLSCAASGFTFSSSAMSWVRQTPGKELQWVSAITPGGEGTYYADVVKGRFTISRDNSKDTLYLQMDSLRAEDTAVYYCARDLYGSYGDAFDIWGQGTLVTVSS
VL: SYELTQPSSVSVSPGQTASITCSGDKLGEKYASWYQQKPGQSPVLVMFEDTKRPSGIPERFSGSNSGNTATLTISGTQAEDEADYYCQAWDSSWVFGGGTQLTVL
notes: Light-chain-shuffled variant of XPA.85.017
In assay [1], B1 displayed an EC50 of 0.196 nM. Also, in assay [2], the half-maximal effective concentration (EC50) amounted to 0.337 nM. Further, in assay [3], the Kd was 0.31 nM, the koff turned out to be 0.0006 s⁻¹ and the association rate constant (kon) turned out to be 1.9e+06 M⁻¹ s⁻¹.

B2: XPA.85.287 (antibody, V domains shown)
VH: B1 VH
VL: SYVLTQPPSVSVAPGQTARITCSGDKLGDRYVSWYQQKPGQSPVLVMFEDTGRPAGIPERFSGSNSGNTATLTISGTQAEDEADYYCQAWGTSWVFGGGTQLTVL
notes: also called Ab287
Turning to B2, the “fold shift of the PTH (1-34) dose response, M-CSF secretion by Saos-2 cells, 40 µg/mL antibody” value in assay [4] was approximately 7 fold. Besides, a half-maximal effect in assay [1] (EC50) was put at 0.0909 nM. In assay [2], this molecule showed an EC50 of 0.281 nM. In addition, in assay [3], the Kd was determined as 0.099 nM, the koff was found to be 0.00036 s⁻¹ and the association rate constant (kon) amounted to 3.6e+06 M⁻¹ s⁻¹.

B3: XPA.85.339 (antibody, V domains shown)
VH: B1 VH
VL: SYELTQPPSVSVAPGQTATITCSGDRLGDKFISWYQQKPGQSPLLVIFEDNERPSRIPERFSGSNSGNSATLTISGTQAVDEADYYCQAWDSSWVFGGGTQLTVL
notes: as for B1
Molecule B3 displayed an EC50 in assay [1] of 0.0984 nM. In assay [2], the EC50 came to 0.258 nM. Besides, in assay [3], the Kd is 0.22 nM, the koff was 0.00065 s⁻¹ and the on-rate (kon) is 2.9e+06 M⁻¹ s⁻¹.

B4: XPA.85.329 (antibody, V domains shown)
VH: QMQLVQSGAEVKKPGSSVKVSCKASGGTFSSYAISWVRQAPGQGLEWMGGIIPIFGTANYAQKFQGRVTITADESTSTAYMELSSLRSEDTAVYYCARGYVVARLWGQGTLVTVSS
VL: DIVMTQTPLSLSVTPGQPASISCKSSQSLLHIDGLTYLYWYLQKPGQPPQLLIYEVSHRFSGVSDKFSGSGSGTDFTLTISRVEAEDVGVYYCMQSLHLPITFGQGTRLEIK
notes: IgG; also called Ab329; XPA.329
With B4, in assay [4], the “EC50 of antibody, neutralization of M-CSF production induced by 12.5 nM PTHrP (1-36)” value was 4 nM and the “fold shift of the PTHrP (1-36) dose response, M-CSF secretion by Saos-2 cells, 40 µg/mL antibody” value was more than 200 fold. Besides, in assay [3], the Kd worked out at 0.22 nM, the koff turned out to be 7.6e-05 s⁻¹ and the kon is 340000 M⁻¹ s⁻¹.
